Target: IAEDANS labeled sarcoplasmic reticulum Ca-ATPase (SERCA) (rabbit (purified from rabbit skeletal muscle)) (UniProt P04191)
Experiment: FRET or BRET

Xb (fraction of SERCA bound to PLB) (mole fraction): 0.82
Substance: Dabcyl labeled monomeric AFA-PLB mutant (C36A/C41F/C46A) of phospholamban (peptide)

Source: article PMC3327772
